Numbering of substitutions follows the chain as printed. Numbers in names are those of the source. Like-named read-outs stand apart in the source and are kept apart here.
T1: RAD52 full length (UniProt P43351 1-418)
T1 sequence: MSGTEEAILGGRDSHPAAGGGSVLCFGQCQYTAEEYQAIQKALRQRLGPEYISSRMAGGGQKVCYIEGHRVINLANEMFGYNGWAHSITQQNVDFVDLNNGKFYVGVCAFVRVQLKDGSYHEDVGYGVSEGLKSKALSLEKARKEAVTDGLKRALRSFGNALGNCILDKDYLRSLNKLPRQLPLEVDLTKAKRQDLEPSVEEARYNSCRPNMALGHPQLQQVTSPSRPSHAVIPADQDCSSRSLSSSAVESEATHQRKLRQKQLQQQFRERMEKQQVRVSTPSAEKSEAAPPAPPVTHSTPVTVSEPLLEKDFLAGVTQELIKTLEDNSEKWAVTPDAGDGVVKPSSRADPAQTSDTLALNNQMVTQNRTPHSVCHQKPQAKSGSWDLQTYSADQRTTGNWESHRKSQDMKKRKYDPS

T2: RAD52-CTD (UniProt P43351 217-418)
T2 sequence: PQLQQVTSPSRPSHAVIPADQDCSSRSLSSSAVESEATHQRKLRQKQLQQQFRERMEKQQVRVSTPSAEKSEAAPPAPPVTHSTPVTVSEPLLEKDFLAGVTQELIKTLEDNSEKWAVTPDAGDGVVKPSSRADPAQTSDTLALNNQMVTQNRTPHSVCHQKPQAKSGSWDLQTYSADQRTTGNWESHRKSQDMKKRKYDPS

B1: no. 517 63-mer RNA (ssRNA)
RNA: UCCUUUUGAUAAGAGGUCAUUUUUGCGGAUGGCUUAGAGCUUAAUUGCUGAAUCUGGUGCUGU
B2: Human RPA70N (1-120) (domain or fragment)
chain: MVGQLSEGAIAAIMQKGDTNIKPILQVINIRPITTGNSPPRYRLLMSDGLNTLSSFMLATQLNPLVEEEQLSSNCVCQIHRFIVNTLKDGRRVVILMELEVLKSAEAVGVKIGNPVPYNE
B3: no. 1 63-mer ssDNA (ssDNA)
DNA: ACAGCACCAGATTCAGCAATTAAGCTCTAAGCCATCCGCAAAAATGACCTCTTATCAAAAGGA
B4: GST-tagged RAD52 CTD (217-418) wild type (domain or fragment)
chain: T2 sequence
B5: 15N-labeled RAD52-CTD (217-418), GST tag cleaved (domain or fragment)
chain: T2 sequence
modifications: uniformly 15N labeled
B6: GST-tagged RAD52 CTD (217-418) L314A/V317N/L321Q/I322Q/L325A/W332A (domain or fragment, human, UniProt P43351 217-418, looked up)
chain: T2 sequence with L98A, V101N, L105Q, I106Q, L109A, W116A

What was measured:
RAD52 full length [1] = target: T1, RAD52 full length; experiment: EMSA
RAD52-CTD [2] = target: T2, RAD52-CTD; experiment: EMSA
[3] = target: RPA heterotrimer (RPA70:RPA32:RPA14) (human, UniProt P27694;P15927;P35244 1-616;1-270;1-121); experiment: EMSA
[4] = target: B5; experiment: NMR titration
RAD52 full length [5] = target: T1, RAD52 full length; experiment: EMSA; remark: listed apart in the source
RAD52-CTD [6] = target: T2, RAD52-CTD; experiment: EMSA; remark: listed apart in the source
[7] = target: T3, full-length RPA trimer (RPA70:RPA14:RPA32) (human, UniProt P27694;P15927;P35244); experiment: pull-down
[8] = target: T3, full-length RPA trimer …; experiment: NMR titration
[9] = target: T3, full-length RPA trimer …; experiment: pull-down; remark: listed apart in the source

T3 sequence (P15927 whole entry, chain 2 of 2): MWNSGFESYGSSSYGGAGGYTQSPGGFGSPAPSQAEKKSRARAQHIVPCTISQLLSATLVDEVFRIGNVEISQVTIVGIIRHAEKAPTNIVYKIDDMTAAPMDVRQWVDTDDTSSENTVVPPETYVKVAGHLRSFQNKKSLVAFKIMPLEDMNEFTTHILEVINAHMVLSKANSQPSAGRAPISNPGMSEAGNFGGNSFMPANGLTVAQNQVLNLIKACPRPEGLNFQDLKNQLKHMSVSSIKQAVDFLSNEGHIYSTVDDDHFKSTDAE
T3 sequence (P35244 whole entry, chain 3 of 2): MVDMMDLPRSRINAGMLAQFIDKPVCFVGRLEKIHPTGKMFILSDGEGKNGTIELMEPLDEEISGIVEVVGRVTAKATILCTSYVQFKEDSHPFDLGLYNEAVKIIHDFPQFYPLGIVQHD
RPA heterotrimer (RPA70:RPA32:RPA14), sequence (P15927 whole entry, chain 2 of 2): as the sequence (P15927 whole entry, chain 2 of 2) above
RPA heterotrimer (RPA70:RPA32:RPA14), sequence (P35244 whole entry, chain 3 of 2): as the sequence (P35244 whole entry, chain 3 of 2) above

Binder: B1
- binding result (RAD52 full length [1]): binds
- binding result (RAD52-CTD [2]): no binding
- binding result [3]: binds

Binder: B2
- binding result [4]: binds

Binder: B3
- binding result (RAD52 full length [5]): binds
- binding result (RAD52-CTD [6]): no binding

Binder: B4
- binding result [7]: binds

Binder: B5
- binding result [8]: binds

Binder: B6
- binding result [9]: binds
